Reference: US20130288373A1 (published 2013)

How the values were obtained:
[1] = target: T1, Flt3D1-D5, recombinant human Flt3 ectodomain (residues 27-541) with C-terminal hexahistidine tag (human, UniProt P36888 27-541, N-linked glycosylation at 43, 100, 151, 306, 323, 351, 354, 473, 502 (at least partially occupied, by mass spectrometry)); experiment: ITC at 37 C, Flt3 ectodomain titrated with FL; Flt3D1-D5 ectodomain
T1 construct: Secreted from HEK293T or HEK293S GnTI-/- cells and glycosylated; The secretion signal is not part of the mature protein; also called Flt3D15(27-541); Flt3D1-5
T1 sequence: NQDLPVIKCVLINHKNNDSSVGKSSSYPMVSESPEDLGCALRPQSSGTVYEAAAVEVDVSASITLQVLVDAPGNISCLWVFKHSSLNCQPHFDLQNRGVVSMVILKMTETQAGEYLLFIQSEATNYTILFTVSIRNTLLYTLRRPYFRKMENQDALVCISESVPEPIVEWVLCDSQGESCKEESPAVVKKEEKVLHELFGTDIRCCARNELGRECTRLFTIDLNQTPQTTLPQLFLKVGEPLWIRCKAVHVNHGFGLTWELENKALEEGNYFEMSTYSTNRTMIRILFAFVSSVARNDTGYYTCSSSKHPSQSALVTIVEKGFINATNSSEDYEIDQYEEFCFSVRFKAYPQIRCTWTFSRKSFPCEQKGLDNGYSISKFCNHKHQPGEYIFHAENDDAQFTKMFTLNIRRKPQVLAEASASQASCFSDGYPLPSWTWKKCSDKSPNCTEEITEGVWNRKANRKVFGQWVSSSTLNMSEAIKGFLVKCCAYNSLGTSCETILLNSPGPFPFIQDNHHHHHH
Protocol: (§1) Experiments were carried out using a VP-ITC MicroCalorimeter (MicroCal, MA) at 37° C., and data were analyzed using the Origin ITC analysis software package supplied by MicroCal. Purified recombinant Flt3 ectodomain constructs and FL were dialyzed overnight against 10 mM Tris-HCl, pH 7.4, at 4° C. Protein concentrations were measured spectrophotometrically at 280 nm using calculated theoretical extinction coefficients and all solutions were extensively degassed prior to use. The sample was stirred at a speed of 400 rpm throughout. The thermal titration data were fit to the “one binding site model”, and apparent molar reaction enthalpy (ΔH°), apparent entropy (ΔS°), association constant (Ka) and stoichiometry of binding (N) were determined. Several titrations were performed to evaluate reproducibility.
(§2) To quantify the thermodynamics, stoichiometry and affinity of extracellular complexes and to dissect the contribution of individual ectodomain modules to complex formation, isothermal titration calorimetry (ITC) was employed. This led to a number of consensus observations (FIG. 1D-F). […] Upon adjusting the Flt3 concentration to the approximate active receptor fraction (˜50%) estimated via the chromatographic elution profile of complex formation, a stoichiometry and thermodynamic signature consistent with that of the other two complexes is detected (FIG. 1F).

[2] = target: T2, Flt3D1-D3, recombinant human Flt3 ectodomain variant (residues 27-346) with C-terminal hexahistidine tag (human, UniProt P36888 27-346, N-linked glycosylation (glycosylated protein from HEK293 cells)); experiment: isothermal titration calorimetry at 37 °C, Flt3 ectodomain titrated with FL, one binding site model
T2 construct: also called Flt3D13(27-346)
T2 sequence: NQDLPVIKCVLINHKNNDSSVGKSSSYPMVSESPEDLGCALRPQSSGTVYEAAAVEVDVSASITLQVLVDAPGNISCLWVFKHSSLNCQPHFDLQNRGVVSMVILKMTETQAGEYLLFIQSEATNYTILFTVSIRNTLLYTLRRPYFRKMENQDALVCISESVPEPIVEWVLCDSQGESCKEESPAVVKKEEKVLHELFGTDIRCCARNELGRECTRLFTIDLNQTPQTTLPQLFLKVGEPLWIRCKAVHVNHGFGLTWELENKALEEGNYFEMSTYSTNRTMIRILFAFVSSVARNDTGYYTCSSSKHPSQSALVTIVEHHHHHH
From the text: (§3) (A-B) Isolation of Flt3D1-D5:FL and Flt3D1-D4:FL by size-exclusion chromatography (SEC). Also shown are Coomassie-stained SDS-PAGE strips corresponding to the peak fraction of the isolated complexes. The elution profiles of the complexes are characterized by large shifts to a single, faster migrating peak corresponding to the respective complex. (C) Size-exclusion chromatography on the Flt3D1-D3:FL mixture at the end of an ITC experiment, showing that a large amount of Flt3D1-D3 remains in the unbound form. Identical elution profiles were obtained in standard SEC experiments as well, in the presence of a large molar excess of FL. (D-F) Binding isotherms and thermodynamic parameters of FL binding to Flt3 ectodomains obtained by Isothermal Titration calorimetry (ITC). All experiments were performed by titrating recombinant Flt3 extracellular domains with FL.
as §1

[3] = target: T1, Flt3D1-D5, recombinant human Flt3 …; experiment: as above
From the text: as §3, §1

[4] = target: T3, Flt3D1-D4, recombinant human Flt3 ectodomain variant (residues 27-434) with C-terminal hexahistidine tag (human, UniProt P36888 27-434, N-linked glycosylation (glycosylated protein from HEK293 cells)); experiment: as above
T3 construct: Secreted from HEK293T or HEK293S GnTI-/- cells and glycosylated; also called Flt3D14(27-434); Flt3D1-4
T3 sequence: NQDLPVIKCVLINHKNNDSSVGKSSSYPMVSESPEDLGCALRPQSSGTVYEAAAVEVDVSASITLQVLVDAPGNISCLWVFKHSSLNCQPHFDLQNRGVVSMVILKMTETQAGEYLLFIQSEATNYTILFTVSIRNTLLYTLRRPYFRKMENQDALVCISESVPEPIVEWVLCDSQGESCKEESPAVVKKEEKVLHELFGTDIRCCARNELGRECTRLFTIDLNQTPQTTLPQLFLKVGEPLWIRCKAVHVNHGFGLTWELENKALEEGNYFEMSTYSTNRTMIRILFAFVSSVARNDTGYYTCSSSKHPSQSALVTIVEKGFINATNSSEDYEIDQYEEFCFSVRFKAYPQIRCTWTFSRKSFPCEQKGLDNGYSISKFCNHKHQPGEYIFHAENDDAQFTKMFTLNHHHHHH
From the text: as §3, §1

[5] = target: T4, Flt3D1-D2, recombinant human Flt3 ectodomain variant (residues 27-244) with C-terminal hexahistidine tag (human, UniProt P36888 27-244, N-linked glycosylation (glycosylated protein from HEK293 cells)); experiment: size-exclusion chromatography with FL
T4 construct: also called Flt3D12 (27-244)
T4 sequence: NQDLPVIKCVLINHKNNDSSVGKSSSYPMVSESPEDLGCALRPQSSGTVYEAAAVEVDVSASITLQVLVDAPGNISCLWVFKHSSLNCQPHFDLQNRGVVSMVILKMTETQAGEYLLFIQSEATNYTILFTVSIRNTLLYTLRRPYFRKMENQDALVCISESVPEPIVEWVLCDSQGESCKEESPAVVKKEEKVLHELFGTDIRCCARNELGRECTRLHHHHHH

[6] = target: T5, Flt3D1, recombinant human Flt3 ectodomain variant (residues 27-161) with C-terminal hexahistidine tag (human, UniProt P36888 27-161, N-linked glycosylation (glycosylated protein from HEK293 cells)); experiment: size-exclusion chromatography with FL
T5 construct: also called Flt3D1(27-161)
T5 sequence: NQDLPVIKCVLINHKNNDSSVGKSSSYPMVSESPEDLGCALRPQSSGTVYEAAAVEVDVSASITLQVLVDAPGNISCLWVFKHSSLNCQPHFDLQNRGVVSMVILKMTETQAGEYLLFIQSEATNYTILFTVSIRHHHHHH

[7] = target: T3, Flt3D1-D4, recombinant human Flt3 …; experiment: ITC at 37 C, Flt3 ectodomain titrated with FL; Flt3D1-D4 ectodomain
Protocol: as §1, §2

[8] = target: T2, Flt3D1-D3, recombinant human Flt3 …; experiment: ITC at 37 C, Flt3 ectodomain titrated with FL; Flt3D1-D3 ectodomain; about 50% active receptor fraction
Protocol: as §1, §2

[9] = target: T1, Flt3D1-D5, recombinant human Flt3 …; experiment: ITC at 37 C, one binding site model
Protocol: as §1, §2

[10] = target: T3, Flt3D1-D4, recombinant human Flt3 …; experiment: ITC at 37 C, one binding site model
Protocol: as §1, §2

B1: recombinant human FL (fms-like tyrosine kinase receptor-3 ligand) produced in E. coli (ligand)
chain: TQDCSFQHSPISSDFAVKIRELSDYLLQDYPVTVASNLQDEELCGGLWRLVLAQRWMERLKTVAGSKMQGLLERVNTEIHFVTKCAFQPPPSCLRFVQTNISRLLQETSEQLVALKPWITRQNFSRCLELQCQP
notes: Dimeric cytokine; also called Flt3 ligand; cognate ligand
B1 showed a Kd [1] of 0.0087 µM, a Kd [2] of 0.0746 µM and an N [2] of 0.121. The ΔH [2] was -104 kJ/mol, the ΔS [2] was -47.5 cal mol-1 K-1 and the N [3] was 0.42. The ΔH [3] was -216 kJ/mol, the ΔS [3] was -130 cal mol-1 K-1 and the N [4] was 0.45. The ΔH [4] was -234 kJ/mol, the ΔS [4] was -146 cal mol-1 K-1 and the binding result [5] was “no binding”. For the same binder, the binding result [6] was “no binding”, the Kd [7] was 0.04 µM and the Kd [8] was 0.07 µM. For the same binder, the “stoichiometry of binding (N)” value [9] was 0.5 and the “stoichiometry of binding (N)” value [10] was 0.5.
